{"source": "paper PMC5728393", "about": "(Nucleic Acids Research, 2017)", "molecules": {"B1": {"name": "operator G9T/G9'T (dsDNA)", "DNA 1": "CGGAACATTTAAATAGTTAAATGATTAC", "DNA 2": "GTAATCATTTAACTATTTAAATGTTCCG"}, "B2": {"name": "operator G9A/G9'A (dsDNA)", "DNA 1": "CGGAACATATAAATAGTTATATGATTAC", "DNA 2": "GTAATCATATAACTATTTATATGTTCCG"}, "B3": {"name": "operator C6T/C6'T (dsDNA)", "DNA 1": "CGGAATATGTAAATAGTTACATAATTAC", "DNA 2": "GTAATTATGTAACTATTTACATATTCCG"}, "B4": {"name": "operator C6G/C6'G (dsDNA)", "DNA 1": "CGGAAGATGTAAATAGTTACATCATTAC", "DNA 2": "GTAATGATGTAACTATTTACATCTTCCG"}, "B5": {"name": "operator T17A/T17'A (dsDNA)", "DNA 1": "CGGAACATGTATATAGATACATGATTAC", "DNA 2": "GTAATCATGTATCTATATACATGTTCCG"}, "B6": {"name": "operator T18C/T18'C (dsDNA)", "DNA 1": "CGGAACATGTGAATAGTCACATGATTAC", "DNA 2": "GTAATCATGTGACTATTCACATGTTCCG"}, "B7": {"name": "operator T10A/T10'A (dsDNA)", "DNA 1": "CGGAACATGAAAATAGTTTCATGATTAC", "DNA 2": "GTAATCATGAAACTATTTTCATGTTCCG"}, "B8": {"name": "bridge operator (dsDNA)", "DNA 1": "AGTTACATGATTACCGGAACATGTAAAT", "DNA 2": "ATTTACATGTTCCGGTAATCATGTAACT"}, "B9": {"name": "operator C6A/C6'A (dsDNA)", "DNA 1": "CGGAAAATGTAAATAGTTACATTATTAC", "DNA 2": "GTAATAATGTAACTATTTACATTTTCCG"}, "B10": {"name": "operator T8A/T8'A (dsDNA)", "DNA 1": "CGGAACAAGTAAATAGTTACTTGATTAC", "DNA 2": "GTAATCAAGTAACTATTTACTTGTTCCG"}, "B11": {"name": "operator T18G/T18'G (dsDNA)", "DNA 1": "CGGAACATGTCAATAGTGACATGATTAC", "DNA 2": "GTAATCATGTCACTATTGACATGTTCCG"}, "B12": {"name": "phenolic acid decarboxylase regulator (PadR) from Bacillus subtilis, wild type (natural protein, UniProt E0TW95 1-182, looked up)", "chain": "MRVLKYAILGLLRKGELSGYDITSYFKEELGQFWSAKHSQIYPELKKLTDEGFITFRTTIQGTKLEKKMYTLTDSGKQELHDWLIRHQPIPETVKDEFMLKAYFISSLSRQEASDLFTDQLLKRKAKLSDLQGSYEKLMASAEPMSFSSPDFGHYLVLTKALEREKNYVSWLESILAMIDED"}}, "key": {"[1]": {"biological_target": "T1, PadR (Bacillus spizizenii, UniProt E0TW95)", "T1 sequence (E0TW95 1-182)": "B12 chain", "test": "isothermal titration calorimetry", "assay_type": "binding"}, "[2]": {"biological_target": "T1, PadR", "test": "X-ray crystal structure of the complex", "assay_type": "binding", "conditions": "10 mM ferulic acid soak, 22% PEG 3350, 0.1 M sodium acetate pH 4.0; interdomain pocket"}, "[3]": {"biological_target": "T2, PadR WT (Bacillus subtilis, UniProt E0TW95 1-182)", "T2 sequence": "B12 chain", "test": "fluorescence polarization"}, "[4]": {"biological_target": "the molecule itself", "test": "SEC"}}}
{"molecule": "O=C(O)/C=C/c1ccc(O)cc1", "note": "[p-coumaric acid]", "values": [{"measurement": "Kd", "setting": "[1]", "value": "6200 ± 100", "unit": "nM"}]}
{"molecule": "COc1cc(/C=C/C(=O)O)ccc1O", "note": "[ferulic acid]", "values": [{"measurement": "X-ray crystal structure of the complex (soaked crystals)", "setting": "[2]", "value": "we also determined a PadR structure in complex with ferulic acid (PadR3FA)"}]}
{"molecule": "B1", "values": [{"measurement": "Kd", "setting": "[3]", "value": "37.8 ± 6.7", "unit": "nM"}]}
{"molecule": "B2", "values": [{"measurement": "Kd", "setting": "[3]", "value": "15.7 ± 2.9", "unit": "nM"}]}
{"molecule": "B3", "values": [{"measurement": "Kd", "setting": "[3]", "value": "160 ± 6.9", "unit": "nM"}]}
{"molecule": "B4", "values": [{"measurement": "Kd", "setting": "[3]", "value": "200 ± 21.7", "unit": "nM"}]}
{"molecule": "B5", "values": [{"measurement": "Kd", "setting": "[3]", "value": "9.4 ± 1.4", "unit": "nM"}]}
{"molecule": "B6", "values": [{"measurement": "Kd", "setting": "[3]", "value": "20.8 ± 1.9", "unit": "nM"}]}
{"molecule": "B7", "values": [{"measurement": "Kd", "setting": "[3]", "value": "11.6 ± 1.3", "unit": "nM"}]}
{"molecule": "B8", "values": [{"measurement": "Kd", "setting": "[3]", "value": "8.9 ± 2.1", "unit": "nM"}]}
{"molecule": "B9", "values": [{"measurement": "Kd", "setting": "[3]", "value": "312 ± 45.5", "unit": "nM"}]}
{"molecule": "B10", "values": [{"measurement": "Kd", "setting": "[3]", "value": "41 ± 4", "unit": "nM"}]}
{"molecule": "B11", "values": [{"measurement": "Kd", "setting": "[3]", "value": "9.9 ± 1.7", "unit": "nM"}]}
{"molecule": "B12", "values": [{"measurement": "stoichiometry N", "setting": "[4]", "value": 2}]}
